According to patent US20110008326A1 (published 2011):

Target: T1, Human, recombinant IL-4R-Fc protein (human, UniProt P24394 26-232)
T1 construct: also called immobilized receptor
T1 sequence: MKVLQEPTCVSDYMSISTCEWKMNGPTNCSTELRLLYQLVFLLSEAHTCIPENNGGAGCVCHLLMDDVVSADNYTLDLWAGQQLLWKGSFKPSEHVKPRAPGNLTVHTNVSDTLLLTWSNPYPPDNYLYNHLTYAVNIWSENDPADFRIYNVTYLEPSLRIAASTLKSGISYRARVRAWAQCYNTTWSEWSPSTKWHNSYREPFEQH
Assay: competition ELISA on IL-4R-Fc coated plates; competitor: 10 ng/ml mouse antibody X2/45
Procedure: Human, recombinant IL-4R-Fc protein was immobilized on ELISA plates at 100 ng/well followed by blocking of free binding sites.

B1: humanised anti-IL-4R antibody (variable regions SEQ ID NOs: 13 and 14) (antibody, V domains shown)
VH: EVQLVESGGGLVKPGGSLRLSCAASGFTFNTNAMNWVRQAPGKGLEWVARIRSKSNNYATYYADSVKDRFTLSRDDSKNTLYLQMNSLKTEDTAVYYCTRDRGWGAMDYWGQGTTVTVSS
VL: DIQMTQSPSSLSASVGDRVTITCSASQDINNYLNWYQQKPGKAPKLLIYYTSSLHSGVPSRFSGSGSGTDFTLTISSLQPEDFATYYCQQFSNLPWTFGGGTKLEIK
notes: Full length antibody made in Hek 293T cells; light chain of kappa type; also called humanised antibody; humanised version of X2/45
binding result: binds
